Measurements from patent US20240043504A1 (published 2024).
Positions count from the first letter of the chain named.

Legend:
SARS-COV-2 RBD-mFc = SARS-COV-2 RBD-mFc (SARS-CoV-2); assay: Luminex beads
[1] = biological target: SARS-CoV-2 RBD extracellular domain expressed with a C-terminal mouse IgG2a (SARS-COV-2 RBD-mFc) (SARS-CoV-2)

B1: mAb10969 (antibody, V domains shown)
VH: QVQLVESGGGVVQPGRSLRLSCAASGFTFSSYAMHWVRQAPGKGLEWVAVISYDGSNKYYADSVKGRFTISRDNSKNTLYLQMNSLRAEDTAVYYCARDGRTITMVRGVIDDAFDIWGQGTMVTVSS
VL: not shown
- binding result (SARS-COV-2 RBD-mFc): binds

B2: mAb10930 (antibody, V domains shown)
VH: EVQLVESGGGLVQPGRSLRLSCAASGFTFDDYAMYWVRQAPGKGLEWVSGISWNSGSIGYADSVKGRFTISRDNAKNSLYLQMNSLRAADTALYYCAKDKDWNSRGYYYYGMDVWGQGTTVTVSS
VL: not shown
- binding result (SARS-COV-2 RBD-mFc): binds

B3: mAb10932 (antibody, V domains shown)
VH: EVQLVESGGGLVQSGGSLRLSCAASGLTVSSNYMSWVRQAPGKGLEWVSVIYSGGSTFYSDSVKGRFTISRHNSKNTLYLQMNSLRAEDTAVYYCARARGDAFDIWGQGTMVTVSS
VL: not shown
- binding result (SARS-COV-2 RBD-mFc): binds

B4: mAb10923 (antibody, V domains shown)
VH: QVQLVQSGAEVKKPGASVKVSCKASGYTFINYYIHWVRQAPGQGLEWMGWINPNSGGTNYAQKFQGRVTMTRDTSISTAYMELSRLRSDDTAVYYCAIITIFGVVTWFDPWGQGTLVTVSS
VL: not shown
- binding result (SARS-COV-2 RBD-mFc): binds

B5: mAb10964 (antibody, V domains shown)
VH: QVQLQESGPGLVKPSETLSLTCTVSGGSINNYYWIWIRQPPGKGLEWIGYIYHSGSTNYNPSLKSRVTISVDTSKNQFSLKVSSVTAADTAVYYCANMVRGVYEDDYWGQGTLVTVSS
VL: DIQMTQSPSSLSASVGDRVTITCRASQSISNYLNWYQQKPGKAPKLLIFAASSLRSGVPSRFSGSGSGTDFTLTISSLHPEDFATYYCQQNYNTPLTFGPGTKVDIKR
- binding result (SARS-COV-2 RBD-mFc): binds

B6: mAb10937 (antibody, V domains shown)
VH: QITLKESGPTLVKPTQTLTLTCTFSGFSLSTNVVGVGWIRQPPGKALEWLALIYWNDDKRYSPSLKSRLTITKDTSKNQVVLTMTNMDPVDTATYYCAHGPTGDYFDYWGQGTLVTVSS
VL: not shown
- binding result (SARS-COV-2 RBD-mFc): binds

B7: mAb10939 (antibody, V domains shown)
VH: EVQLVESGGGLVQPGGSLRLSCAASGLTVSSNYMNWVRQVPGKGLEWVSVIYSGGSKFYVDSVKGRFTISRHNSKNTLYLQMNSLRPEDTAVYYCTRDAQYYGMDVWGQGTTVTVSS
VL: DIQMTQSPSSLSASVGDRVTITCRASQSISTYLHWYQQKPGEAPKLLIYAASSLQSGVPSRFSGSGSGTDFTLTISSLQPEDFATYYCQQSYSTPPEIFGQGTKLEIKR
- binding result (SARS-COV-2 RBD-mFc): binds

B8: mAb10956 (antibody, V domains shown)
VH: B7 VH with N35S, V40A, K57T, V60A, H72D, P87A, T96A, A99L, Q100I, Y101K
VL: not shown
- Kd [1]: 0.395 nM
- t1/2 [1]: 1.3 h

B9: mAb10920 (antibody, V domains shown)
VH: QVQLVESGGGVVQPGRSLRLSCAASGFTFSYYGMHWVRQAPGKGLEWVAVIWYDGSNKFYADSVKGRFTISRDNSKNTLYLQMNSLRAEDTAVYYCAAARPGYYYGMDVWGQGTTVTVSS
VL: DIQMTQSPSSLSASVGDRVTITCRASQGISNYLAWFQQKPGKAPNSLIYAASSLQRGVPSKFSGSGSGTDFTLTISSLQPEDFATYYCQQYNSYPRTFGQGTKVEIKR
- binding result (SARS-COV-2 RBD-mFc): binds

B10: mAb10971 (antibody, V domains shown)
VH: EVQLVESGGGLIQPGGSLRLSCAASGVTVSSNYMSWVRQAPGKGLEWVSVIYSGGSTFYSDSVKGRFSISRDNSKNTLYLQMNSLRAEDTAVYYCARDLYYYGMDVWGQGTTVTVSS
VL: DIQLTQSPSFLSASVGDRVTITCRASQGISTYLAWYQQKPGKAPKLLIYAASTLQSGVPSRFSGSGSGTEFTLTISSLQPEDFATYYCQQLDSYPGLTFGGGTKVEIKR
- binding result (SARS-COV-2 RBD-mFc): binds

B11: mAb10984 (antibody, V domains shown)
VH: EVQLVESGGGLVQPGGSLRLSCAASGLTVNRNYMSWVRQAPGKGLEWVSLIYSGGSTYYADSVKGRFTISRDNSKNTLYLQMNSLRLEDTAVYYCARGELGIPYGMDVWGQGTTVTVSS
VL: QSVLTQPPSVSAAPGQKVTISCSGSSSNIGNNYVSWYQQLPGTAPKLLIYDNNKRPSGIPDRFSGSKSGTSATLGITGLQTGDEADYYCGTWDSSLSAGVFGGGTKLTVLG
- binding result (SARS-COV-2 RBD-mFc): binds

B12: mAb10966 (antibody, V domains shown)
VH: EVQLVESGGGLVQPGGSLRLSCAASGLTVSSNYMSWVRQAPGKGLEWVSVIYSGGSTFYADSVKGRFTISRDNSKNTLYLQMNSLRPEDTAVYYCAREGRIAATGYGMDVWGQGTTVTVSS
VL: not shown
- binding result (SARS-COV-2 RBD-mFc): binds

B13: mAb10934 (antibody, V domains shown)
VH: not shown
VL: DIQMTQSPSSLSASVGDRVTITCQASQDIWNYINWYQQKPGKAPKLLIYDASNLKTGVPSRFSGSGSGTDFTFTISSLQPEDIATYYCQQHDDLPPTFGQGTKVEIKR
- binding result (SARS-COV-2 RBD-mFc): binds

B14: mAb10935 (antibody, V domains shown)
VH: EVQLVESGGGLVQPGGSLRLSCAASGFTVSSNYMSWVRQAPGKGLEWVSLIYSGGSTYYADSVKGRFTISRHNSKNTLYLQMNSLRSEDTAVYYCARVPLGDYYYGMDVWGQGTTVTVSS
VL: B13 VL with W30N, N31K, I33L, K55E, H91S, D93N, P96L, Q100G
- binding result (SARS-COV-2 RBD-mFc): binds

B15: mAb10938 (antibody, V domains shown)
VH: EVQLVESGGGLVQPGGSLRLSCAVSGFTVSSNYMSWVRQAPGKGLEWVSLIYSGGSTFYADSVKGRFTISRHNSKNTLYLQMNSLRAEDTAVYYCAREGGYSYDYNYWGQGTLVTVSS
VL: B13 VL with W30R, I33L, K55E, S65I, H91Y, D93N, P96I, K103R, V104L
- binding result (SARS-COV-2 RBD-mFc): binds

B16: mAb10955 (antibody, V domains shown)
VH: EVQLVESGGGLVQPGGSLRVSCAASGFTVSRNYMSWVRQAPGKGLEWVSVIYSGGSTFYADSVKGRFTISRDNSKNTLYLQMNSLRAEDTAIYYCARYIPRFDPWGQGTLVTVSS
VL: B13 VL with W30S, I33L, Y36F, K42R, K55E, H91Y, D93N, P96I, K103R, V104L
- Kd [1]: 0.0592 nM
- t1/2 [1]: 8.23 h

B17: mAb10967 (antibody, V domains shown)
VH: EVQLVESGGGLVQPGGSLRLSCAASGFTVSSNYMSWVRQAPGKGLEWVSVIYPGGSTFYADSVKGRFTISRDNSKNTLYLQMNSLRAEDTAVYYCARDQRDFAWGQGTLVTVSS
VL: B13 VL with W30S, I33L, K55E, S77G, H91Y, D93N, K103R, V104L
- binding result (SARS-COV-2 RBD-mFc): binds

B18: mAb10954 (antibody, V domains shown)
VH: EVQLVESGGGLVQPGGSLRLSCAASGITVSSNYMSWVRQAPGKGLEWVSLIYSGGSTYYADSVKGRFTISRDNSKNTLYLQMNSLRVEDTAVYYCARDHGMAAAGYNYWGQGTLVTVSS
VL: B13 VL with W30N, N31K, I33L, K55E, S76N, I83F, Y87F, H91Y, D93N, T97A
- Kd [1]: ≤ 0.0173 nM
- t1/2 [1]: ≥ 19.2 h

B19: mAb10921 (antibody, V domains shown)
VH: EVQLVESGGGLVQPGGSLRLSCAASGITVSSNYMSWVRQAPGKGLEWVSVIYSGGSTFYADSVKGRFTISRHNSKNTLYLQMNSLRAEDTAVYYCARERNFDAFDIWGQGTMVTVSS
VL: DIQMTQSPSSVSASVGDRVTITCRASQGISSWLAWYQQKPGKAPKLLIYAASSLQSGVPSRFSGSGSGTDFTLTISSLQPEDFATYYCQQANSFPLFTFGPGTKVDIKR
- binding result (SARS-COV-2 RBD-mFc): binds

B20: mAb10957 (antibody, V domains shown)
VH: B10 VH with I12V, S60A, S68T, Y79F, A87I, Y100G, Y101P
VL: B10 VL with T31S, E70Q, T72I, D92N, L97F, G101P, E106D
- Kd [1]: ≤ 0.0279 nM
- t1/2 [1]: ≥ 19.2 h

B21: mAb10989 (antibody, V domains shown)
VH: QVQLVQSGAEVKKPGASVKVSCKASGYIFTGYYMHWVRQAPGQGLEWMGWINPNSGGANYAQKFQGRVTLTRDTSITTVYMELSRLRFDDTAVYYCARGSRYDWNQNNWFDPWGQGTLVTVSS
VL: QSALTQPASVSGSPGQSITISCTGTSSDVGTYNYVSWYQQHPGKAPKLMIFDVSNRPSGVSDRFSGSKSGNTASLTISGLQAEDEADYYCSSFTTSSTVVFGGGTKLTVLG
- binding result (SARS-COV-2 RBD-mFc): binds

B22: mAb10982 (antibody, V domains shown)
VH: EVQLVESGGGLVQPGGSLRLSCAASGLTVSSNYMSWVRQAPGKGLEWVSVIYSGGTTYYADSVKGRFTISRHNSKNTLSLQMNSLRAEDTAVYYCARGEGANYYGMDVWGQGTTVTVSS
VL: QSVLTQPPSVSGAPGQRVTISCTGSSSNIGTGYDVHWYQQLPGTAPKLLIYGNSNRPSGVPDRFSGSKSGTSASLAITGLQAEDEADYYCQSYDSSLSGYVVFGGGTKLTVLG
- binding result (SARS-COV-2 RBD-mFc): binds

B23: mAb10985 (antibody, V domains shown)
VH: EVQLVESGGGLVQPGRSLRLSCAASGFTFDDYAMHWVRQAPGKGLEWVSGISWNRGSIGYADSVKGRFTISRDNAKNSLYLQMSSLRAEDTALYYCAKDGERWDSVVVPSARNGMDVWGQGTTVTVSS
VL: B22 VL with T31A, Y100S, V101Y, G105T, L109V
- binding result (SARS-COV-2 RBD-mFc): binds

B24: mAb10986 (antibody, V domains shown)
VH: EVQLVESGGGLVQPGGSLRLSCAASEFTVSSNYMSWVRQAPGKGLEWVSVIYSGGSTFYADSVKGRFTISRDNSKNTLYLQMNSLRAEDTAVYYCARALPYGDLHFDYWGQGTLVTVSS
VL: B22 VL with S54T, G99D, Y100S, V101Y, G105T, L109V
- binding result (SARS-COV-2 RBD-mFc): binds

B25: mAb10936 (antibody, V domains shown)
VH: QVQLVESGGGVVQPGRSLRLSCAASGFTFRNYGMHWVRQAPGKGLEWVSVIWYDGSNRYYADSVKGRFTISRDTSKNTLYLQMNSLRAEDTAVYYCARDPPITGTTGGDAFDIWGQGTMVTVSS
VL: not shown
- binding result (SARS-COV-2 RBD-mFc): binds

B26: mAb10965 (antibody, V domains shown)
VH: EVQLVESGGGLIQPGGSLRLSCAASVFTVSYNYMSWVRQAPGKGLEWVSVIYSGGSTYYADSVKGRFTISRDNSKNTLYLQMNSLRAEDTAVYYCARALPGWGGSFEYFDYWGQGTLVTVSS
VL: not shown
- binding result (SARS-COV-2 RBD-mFc): binds
